Source: paper PMC4423959, “The Nucleoid Occlusion SlmA Protein Accelerates the Disassembly of the FtsZ Protein Polymers without Affecting Their GTPase Activity” (PLoS ONE, 2015)
Where two headings read alike, the source gives them in different places. Each block holds one molecule with its values, some of them ahead of it.

B2: E. coli FtsZ (natural protein, UniProt P0A9A6 1-383, looked up)
chain: MFEPMELTNDAVIKVIGVGGGGGNAVEHMVRERIEGVEFFAVNTDAQALRKTAVGQTIQIGSGITKGLGAGANPEVGRNAADEDRDALRAALEGADMVFIAAGMGGGTGTGAAPVVAEVAKDLGILTVAVVTKPFNFEGKKRMAFAEQGITELSKHVDSLITIPNDKLLKVLGRGISLLDAFGAANDVLKGAVQGIAELITRPGLMNVDFADVRTVMSEMGYAMMGSGVASGEDRAEEAAEMAISSPLLEDIDLSGARGVLVNITAGFDLRLDEFETVGNTIRAFASDNATVVIGTSLDPDMNDELRVTVVATGIGMDKRPEITLVTNKQVQQPVMDRYQQHGMAPLTQEQKPVAKVVNDNAPQTAKEPDYLDIPAFLRKQAD
notes: Cell division protein FtsZ of E. coli; The nucleotide state (GDP: oligomers); In AUC and FCS a tracer share of FtsZ labelled on amine groups with Alexa Fluor 488 (FtsZ-Alexa 488) was mixed with unlabelled FtsZ; also called FtsZ-GDP; FtsZ-GTP; source: isolated as described elsewhere [40]

Experiments:
FtsZ (Escherichia coli) [1] = target: FtsZ (Escherichia coli) (UniProt P0A9A6); conditions: cited from earlier work
FtsZ (Escherichia coli) [2] = target: FtsZ (Escherichia coli) (UniProt P0A9A6); conditions: cited from earlier work; remark: listed apart in the source
SlmA [3] = target: T1, SlmA (UniProt P0C093 1-198); experiment: fluorescence anisotropy; 300 mM KCl, 2 mM MgCl2; apparent Kd, 4:1 model; dG 17.6 ± 0.2 kcal/mol; 50 mM Tris-HCl, 300 mM KCl, 2 mM MgCl2, pH 7.5, 20 C; 10 nM labeled SBS in SlmA anisotropy titrations; conditions: protein: recombinant; tags: SUMO tag cleaved off; chain copies: 4; label: 5' fluorescein on sense strand (anisotropy); blunt
T1 sequence: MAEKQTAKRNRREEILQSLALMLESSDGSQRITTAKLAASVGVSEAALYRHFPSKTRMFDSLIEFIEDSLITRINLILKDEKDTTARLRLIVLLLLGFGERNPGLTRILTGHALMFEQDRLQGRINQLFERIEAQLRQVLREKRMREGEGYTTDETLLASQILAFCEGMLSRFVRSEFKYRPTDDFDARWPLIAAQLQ

[4] = target: the molecule itself; experiment: AUC; sedimentation velocity, 48,000 rpm, 20°C, working buffer (50 mM Tris-HCl, 300 mM KCl, 2 mM MgCl2, pH 7.5); FtsZ-GDP 30 μM total with 6 μM FtsZ-Alexa 488 as tracer, without or with SlmA 15 μM and SBScons 4 μM
SlmA [5] = target: T1, SlmA; experiment: fluorescence anisotropy; 300 mM KCl, 2 mM MgCl2; apparent Kd, 4:1 model; dG 20.3 ± 0.2 kcal/mol; 50 mM Tris-HCl, 300 mM KCl, 2 mM MgCl2, pH 7.5, 20 C; 10 nM labeled SBS in SlmA anisotropy titrations; conditions: protein: recombinant; tags: SUMO tag cleaved off; chain copies: 4; label: 5' fluorescein on sense strand (anisotropy); blunt
[6] = target: the molecule itself; experiment: SEC-MALS; Superdex 200 10/300 GL, 0.5 mL/min, 20°C, working buffer (50 mM Tris-HCl, 300 mM KCl, 2 mM MgCl2, pH 7.5); SlmA 10 μM (also 6 μM), no DNA
E. coli FtsZ = target: B2; experiment: fluorescence polarisation; anisotropy titration of FtsZ with 1 mM GTP + regeneration system into SlmA 2 μM with fluorescein-SBScons 0.2 μM (also 1 μM and 10 nM); 20°C, working buffer (50 mM Tris-HCl, 300 mM KCl, 2 mM MgCl2, pH 7.5); 1:1 model, apparent Kd in FtsZ monomer concentration; conditions: both partners purified
SlmA [7] = target: T1, SlmA; experiment: fluorescence anisotropy; 300 mM KCl, 2 mM MgCl2; apparent Kd, 4:1 model; dG 18.0 ± 0.2 kcal/mol; 50 mM Tris-HCl, 300 mM KCl, 2 mM MgCl2, pH 7.5, 20 C; 10 nM labeled SBS in SlmA anisotropy titrations; conditions: protein: recombinant; tags: SUMO tag cleaved off; chain copies: 4; label: fluorescein on T at position 27 from the 5' end of the antisense strand; blunt

Molecule: SlmA (from UniProt P0C093)
Kd (FtsZ (Escherichia coli) [1]): 200 nM

Molecule: MinC (from UniProt P18196)
Kd (FtsZ (Escherichia coli) [2]): 8 µM

B1: SBS12 (dsDNA)
DNA 1: CGCGAAGTGAACGCTAACTCACTG
DNA 2: CAGTGAGTTAGCGTTCACTTCGCG
Kd (SlmA [3]): 270 ± 50 nM

Molecule: B2
binding result [4]: binds

B3: SBScons (dsDNA)
DNA 1: AAGTAAGTGAGCGCTCACTTACGT
DNA 2: ACGTAAGTGAGCGCTCACTTACTT
Kd (SlmA [5]): 25 ± 4 nM

B4: SlmA (free, without DNA) (natural protein, E. coli, UniProt P0C093 1-198, looked up)
chain: MAEKQTAKRNRREEILQSLALMLESSDGSQRITTAKLAASVGVSEAALYRHFPSKTRMFDSLIEFIEDSLITRINLILKDEKDTTARLRLIVLLLLGFGERNPGLTRILTGHALMFEQDRLQGRINQLFERIEAQLRQVLREKRMREGEGYTTDETLLASQILAFCEGMLSRFVRSEFKYRPTDDFDARWPLIAAQLQ
notes: Nucleoid occlusion factor SlmA of E. coli; Dimer by SEC-MALLS in the absence of DNA; also called free SlmA; source: purified and cleaved from SUMO protein essentially as described in [31]
stoichiometry N [6]: 2

Kd (E. coli FtsZ): 12 µM
B5: SlmA·SBS complex (four SlmA monomers, as two dimers, bound to one SBScons DNA) (complex, E. coli, UniProt P0C093 1-198, looked up)
chain: MAEKQTAKRNRREEILQSLALMLESSDGSQRITTAKLAASVGVSEAALYRHFPSKTRMFDSLIEFIEDSLITRINLILKDEKDTTARLRLIVLLLLGFGERNPGLTRILTGHALMFEQDRLQGRINQLFERIEAQLRQVLREKRMREGEGYTTDETLLASQILAFCEGMLSRFVRSEFKYRPTDDFDARWPLIAAQLQ
notes: Nucleoid occlusion factor SlmA of E. coli; same chain as m2; 4:1 SlmA:SBS by sedimentation velocity and SEC-MALLS; also called SlmA SBScons; SlmA:SBScons

B6: SBS17 (dsDNA)
DNA 1: TCAACGTTAGTGACCATTTACTTACTTTTG
DNA 2: CAAAAGTAAGTAAATGGTCACTAACGTTGA
Kd (SlmA [7]): 190 ± 30 nM
